Results: article PMC3148273

Substrate: CCCCCCCCCCCCC/C=C/[C@@H](O)[C@@H](N)CO
Test: purified SK2 Michaelis-Menten kinetics with [γ-32P]ATP
Format: biochemical, Homo sapiens
Details: Mg2+

B1: sphingosine kinase 2 (SK2) (Homo sapiens) (protein)
chain: MNGHLEAEEQQDQRPDQELTGSWGHGPRSTLVRAKAMAPPPPPLAASTPLLHGEFGSYPARGPRFALTLTSQALHIQRLRPKPEARPRGGLVPLAEVSGCCTLRSRSPSDSAAYFCIYTYPRGRRGARRRATRTFRADGAATYEENRAEAQRWATALTCLLRGLPLPGDGEITPDLLPRPPRLLLLVNPFGGRGLAWQWCKNHVLPMISEAGLSFNLIQTERQNHARELVQGLSLSEWDGIVTVSGDGLLHEVLNGLLDRPDWEEAVKMPVGILPCGSGNALAGAVNQHGGFEPALGLDLLLNCSLLLCRGGGHPLDLLSVTLASGSRCFSFLSVAWGFVSDVDIQSERFRALGSARFTLGTVLGLATLHTYRGRLSYLPATVEPASPTPAHSLPRAKSELTLTPDPAPPMAHSPLHRSVSDLPLPLPQPALASPGSPEPLPILSLNGGGPELAGDWGGAGDAPLSPDPLLSSPPGSPKAALHSPVSEGAPVIPPSSGLPLPTPDARVGASTCGPPDHLLPPLGTPLPPDWVTLEGDFVLMLAISPSHLGADLVAAPHARFDDGLVHLCWVRSGISRAALLRLFLAMERGSHFSLGCPQLGYAAARAFRLEPLTPRGVLTVDGEQVEYGPLQAQMHPGIGTLLTGPPGCPGREP
- Km: 10.5 µM
